Data from patent US20170015742A1 (published 2017).

Assays:
[1] = molecular target: VEGF-A (UniProt P15692-4 27-191, limits assumed); assay: SPR (Biacore), DVD-Ig captured by anti-human Fc, antigen injected
Description: (§1) For example, approximately 9000 RU of goat anti-human Fc specific polyclonal antibody (Thermo Fisher Scientific Inc., Rockford, Ill.) diluted in 10 mM sodium acetate (pH 4.5) is directly immobilized across a CM5 research grade biosensor chip using a standard amine coupling kit according to manufacturer's instructions and procedures at 25 μg/ml. Unreacted moieties on the biosensor surface were blocked with ethanolamine. For kinetic analysis, rate equations derived from the 1:1 Langmuir binding model were fitted simultaneously to multiple antigen injections (using global fit analysis) with the use of Scrubber 2 (BioLogic Software), Biacore Biaevaluation 4.0.1 software or Biacore T100 Evaluation software. Purified antibodies or DVD-Ig molecules were diluted in running buffer for capture across goat anti-human Fc reaction surfaces. Antibodies or DVD-Ig molecules to be captured as a ligand (1 μg/ml) were injected over reaction matrices at a flow rate of 10 μl/minute. During the assay, all measurements were referenced against the capture surface alone (i.e., with no captured antibody or DVD-Ig molecule). […] The equilibrium dissociation constant KD (M) of the reaction between antibodies and the target antigen was then calculated from the kinetic rate constants by the following formula: KD=Koff/Kₒₙ. Binding was recorded as a function of time and kinetic rate constants were calculated.

[2] = molecular target: PDGF-BB (UniProt P01127 82-190); assay: as above
Description: as §1

[3] = molecular target: Human VEGF-A 165 (human, UniProt P15692 207-395); assay: cell-based or functional assay
[4] = molecular target: T1, recombinant human VEGF165 (human, UniProt P15692 207-395); assay: SPR (Biacore), antibody captured by anti-human Fc, hVEGF165 in solution
T1 construct: also called hVEGF165
Description: as §1, with “Unreacted” for “For example, approximately 9000 RU of goat anti-human Fc specific polyclonal antibody (Thermo Fisher Scientific Inc., Rockford, Ill.) diluted in 10 mM sodium acetate (pH 4.5) is directly immobilized across a CM5 research grade biosensor chip using a standard amine coupling kit according to manufacturer's instructions and procedures at 25 μg/ml. Unreacted”, “calculated. In this assay, on-rates as fast as 10⁶M⁻¹s⁻¹ and off-rates as slow as 10⁻⁶ s⁻¹ could be measured.” for “calculated.”
Affinity matured humanized anti-VEGF antibodies were characterized for hVEGF₁₆₅ binding and potency. Binding affinity of these molecules to hVEGF₁₆₅ was determined by Biacore analysis (Example 1.1). Potency was evaluated in both cell-based and ELISA formats. The ability to block binding of hVEGF₁₆₅ to hVEGFR2 was evaluated in a competition ELISA (Example 1.4) Inhibition of hVEGF₁₆₅-induced cell proliferation was assessed using HMVEC-d cells (Example 1.10).

PDGF-BB, sequence (P01127 82-190): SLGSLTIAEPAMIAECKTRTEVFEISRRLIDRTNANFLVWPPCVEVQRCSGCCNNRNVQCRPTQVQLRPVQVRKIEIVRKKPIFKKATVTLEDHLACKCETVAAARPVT
VEGF-A, sequence (P15692 other isoform, or with tags, fused parts or gaps limits assumed): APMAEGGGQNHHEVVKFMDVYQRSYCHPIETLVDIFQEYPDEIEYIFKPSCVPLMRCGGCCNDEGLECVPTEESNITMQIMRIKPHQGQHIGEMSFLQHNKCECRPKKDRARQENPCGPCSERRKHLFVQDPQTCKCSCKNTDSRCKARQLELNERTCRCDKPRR
Human VEGF-A 165, sequence (P15692 other isoform, or with tags, fused parts or gaps limits assumed): as above
T1 sequence (P15692 other isoform, or with tags, fused parts or gaps limits assumed): as above

B1: 3E2.1_GS_1B10.1 (PR-1612502) (bispecific antibody, human IgG1, kappa, L234A L235A)
heavy: EVQLVQSGAEVKKPGSSVKVSCKASGYTFTESYMYWVKQAPGQGLELIGRIDPEDGSTDYVEKFKNKATLTADKSTSTAYMELSSLRSEDTAVYFCARFGARSYFYPMDAWGQGTTVTVSSGGGGSGGGGSEVQLVESGGGLVQPGGSLRLSCAASGFSFSKYDMAWFRQAPGKGLEWVASITTSGVGTYYRDSVKGRFTVSRDNAKSTLYLQMNSLRAEDTAVYYCARGYGAMDAWGQGTTVTVSSASTKGPSVFPLAPSSKSTSGGTAALGCLVKDYFPEPVTVSWNSGALTSGVHTFPAVLQSSGLYSLSSVVTVPSSSLGTQTYICNVNHKPSNTKVDKKVEPKSCDKTHTCPPCPAPEAAGGPSVFLFPPKPKDTLMISRTPEVTCVVVDVSHEDPEVKFNWYVDGVEVHNAKTKPREEQYNSTYRVVSVLTVLHQDWLNGKEYKCKVSNKALPAPIEKTISKAKGQPREPQVYTLPPSREEMTKNQVSLTCLVKGFYPSDIAVEWESNGQPENNYKTTPPVLDSDGSFFLYSKLTVDKSRWQQGNVFSCSVMHEALHNAYTQKSLSLSPGK
light: ETVLTQSPATLSLSPGERATLSCRASESVSTLMHWYQQKPGQQPRLLIYGASNLESGVPARFSGSGSGTDFTLTISSLEPEDFAVYFCQQSWNDPWTFGGGTKVEIKGGSGGGGSGGDIQMTQSPSSLSASVGDRVTITCKASQDIDDYLSWYQQKPGKSPKLVIYAATRLADGVPSRFSGSGSGTDYTLTISSLQPEDFATYYCLQSSSTPWTFGGGTKVEIKRTVAAPSVFIFPPSDEQLKSGTASVVCLLNNFYPREAKVQWKVDNALQSGNSQESVTEQDSKDSTYSLSSTLTLSKADYEKHKVYACEVTHQGLSSPVTKSFNRGEC
notes: DVD-Ig: outer hBFU-3E2.1 (PDGF), inner hBEW-1B10.1 (VEGF), linkers GS-H10 / GS-L10(dR); Human IgG1 L234A, L235A, H435A with kappa light chain
Kd [1]: 320 pM | kon [1]: 350000 M⁻¹ s⁻¹ | Kd [2]: 1.8 pM | kon [2]: 8.4e+07 M⁻¹ s⁻¹

B2: hBEW-1E3.3 (antibody, V domains shown)
VH: EVQLVQSGAEVKKPGASVKVSCKASGYPFTNSGMYWVRQAPGQGLEWMGWINTEAGKPTYADDFKGRFTFTLDTSTSTAYLEIRSLRSDDTAVYYCARWGYISDNSYGWFDYWGQGTLVTVSS
VL: ETVLTQSPATLSLSPGERATLSCRASEGVYSYMHWYQQKPGQQPRLLIYKASNLASGVPARFSGSGSGTDFTLTISSLEPEDFAVYFCHQNWNDPLTFGQGTKLEIK
hVEGF165 IC50 (nM), HMVEC-d proliferation [3]: 0.205 nM

B3: hBEW-5C3.5 (antibody, V domains shown)
VH: EIQLVQSGAEVKKPGSSVKVSCKASGYTFTNYGVYWVKQAPGQGLEYMGWINTETGKPTYADDFKGRFTFTLDKSTSTAYMELSSLRSEDTAVYFCARARQLDWFVYWGQGTLVTVSS
VL: DTQLTQSPSSLSASVGDRVTISCRARESLTTSLSWFQQKPGKQPKLLIYGASKLESGVPSRFSGSGSGTDFTLTISSLQPEDFATYFCQQSWYDPPTFGGGTKVEIK
hVEGF165 IC50 (nM), HMVEC-d proliferation [3]: 0.123 nM

B4: 3E2.1_GS_1E3.4 (PR-1613190) (bispecific antibody, human IgG1, kappa, L234A L235A)
heavy: EVQLVQSGAEVKKPGSSVKVSCKASGYTFTESYMYWVKQAPGQGLELIGRIDPEDGSTDYVEKFKNKATLTADKSTSTAYMELSSLRSEDTAVYFCARFGARSYFYPMDAWGQGTTVTVSSGGGGSGGGGSEIQLVQSGSELKKPGASVKVSCKASGYPFTNSGMYWVKQAPGQGLEYMGWINTEAGKPTYADDFKGRFVFSLDTSVSTAYLQISSLKAEDTAVYFCARWGYISDNSYGWFDYWGQGTLVTVSSASTKGPSVFPLAPSSKSTSGGTAALGCLVKDYFPEPVTVSWNSGALTSGVHTFPAVLQSSGLYSLSSVVTVPSSSLGTQTYICNVNHKPSNTKVDKKVEPKSCDKTHTCPPCPAPEAAGGPSVFLFPPKPKDTLMISRTPEVTCVVVDVSHEDPEVKFNWYVDGVEVHNAKTKPREEQYNSTYRVVSVLTVLHQDWLNGKEYKCKVSNKALPAPIEKTISKAKGQPREPQVYTLPPSREEMTKNQVSLTCLVKGFYPSDIAVEWESNGQPENNYKTTPPVLDSDGSFFLYSKLTVDKSRWQQGNVFSCSVMHEALHNAYTQKSLSLSPGK
light: ETVLTQSPATLSLSPGERATLSCRASESVSTLMHWYQQKPGQQPRLLIYGASNLESGVPARFSGSGSGTDFTLTISSLEPEDFAVYFCQQSWNDPWTFGGGTKVEIKGGSGGGGSGGATQLTQSPSSLSASVGDRVTISCRASEGVYSYMHWYQQKPGKQPKLLIYKASNLASGVPSRFSGSGSGTDFTLTISSLQPEDFATYFCHQNWNDPLTFGQGTKLEIKRTVAAPSVFIFPPSDEQLKSGTASVVCLLNNFYPREAKVQWKVDNALQSGNSQESVTEQDSKDSTYSLSSTLTLSKADYEKHKVYACEVTHQGLSSPVTKSFNRGEC
notes: DVD-Ig: outer hBFU-3E2.1 (PDGF), inner hBEW-1E3.4 (VEGF), linkers GS-H10 / GS-L10(dR); Human IgG1 L234A, L235A, H435A with kappa light chain
Kd [1]: 260 pM | kon [1]: 360000 M⁻¹ s⁻¹ | Kd [2]: ≤ 5.3 pM | kon [2]: ≥ 9e+07 M⁻¹ s⁻¹

B5: hBEW-5C3.1 (antibody, V domains shown)
VH: EIQLVQSGSELKKPGASVKVSCKASGYTFTNYGVYWVKQAPGQGLEYMGWINTETGKPTYADDFKGRFVFSLDTSVSTAYLQISSLKAEDTAVYYCARARQLDWFVYWGQGTLVTVSS
VL: DTVLTQSPATLSLSPGERATLSCRARESLTTSLSWFQQKPGQQPRLLIYGASKLESGVPARFSGSGSGTDFTLTISSLEPEDFAVYFCQQSWYDPPTFGGGTKVEIK
hVEGF165 IC50 (nM), HMVEC-d proliferation [3]: 0.071 nM

B6: hBEW-5C3.2 (antibody, V domains shown)
VH: EIQLVQSGAEVKKPGSSVKVSCKASGYTFTNYGVYWVKQAPGQGLEYMGWINTETGKPTYADDFKGRFTFTLDKSTSTAYMELSSLRSEDTAVYFCARARQLDWFVYWGQGTLVTVSS
VL: DTVLTQSPATLSLSPGERATLSCRARESLTTSLSWFQQKPGQQPRLLIYGASKLESGVPARFSGSGSGTDFTLTISSLEPEDFAVYFCQQSWYDPPTFGGGTKVEIK
hVEGF165 IC50 (nM), HMVEC-d proliferation [3]: 0.162 nM

B7: hBEW-5C3.3 (antibody, V domains shown)
VH: EVQLVQSGAEVKKPGSSVKVSCKASGYTFTNYGVYWVRQAPGQGLEWMGWINTETGKPTYADDFKGRFTFTLDKSTSTAYMELSSLRSEDTAVYYCARARQLDWFVYWGQGTLVTVSS
VL: DTVLTQSPATLSLSPGERATLSCRARESLTTSLSWFQQKPGQQPRLLIYGASKLESGVPARFSGSGSGTDFTLTISSLEPEDFAVYFCQQSWYDPPTFGGGTKVEIK
hVEGF165 IC50 (nM), HMVEC-d proliferation [3]: > 2 nM

B8: hBEW-5C3.4 (antibody, V domains shown)
VH: EIQLVQSGSELKKPGASVKVSCKASGYTFTNYGVYWVKQAPGQGLEYMGWINTETGKPTYADDFKGRFVFSLDTSVSTAYLQISSLKAEDTAVYYCARARQLDWFVYWGQGTLVTVSS
VL: DTQLTQSPSSLSASVGDRVTISCRARESLTTSLSWFQQKPGKQPKLLIYGASKLESGVPSRFSGSGSGTDFTLTISSLQPEDFATYFCQQSWYDPPTFGGGTKVEIK
hVEGF165 IC50 (nM), HMVEC-d proliferation [3]: 0.098 nM

B9: hBEW-1B10.1 (antibody, V domains shown)
VH: EVQLVESGGGLVQPGGSLRLSCAASGFSFSKYDMAWFRQAPGKGLEWVASITTSGVGTYYRDSVKGRFTVSRDNAKSTLYLQMNSLRAEDTAVYYCARGYGAMDAWGQGTTVTVSS
VL: DIQMTQSPSSLSASVGDRVTITCKASQDIDDYLSWYQQKPGKSPKLVIYAATRLADGVPSRFSGSGSGTDYTLTISSLQPEDFATYYCLQSSSTPWTFGGGTKVEIK
hVEGF165 IC50 (nM), HMVEC-d proliferation [3]: 0.168 nM

B10: hBEW-1B10.2 (antibody, V domains shown)
VH: EVQLVESGGGLVQPGGSLRLSCAASGFSFSKYDMAWFRQAPGKGLEWVASITTSGVGTYYRDSVKGRFTVSRDNAKNSLYLQMNSLRAEDTAVYYCARGYGAMDAWGQGTTVTVSS
VL: DIQMTQSPSSLSASVGDRVTITCKASQDIDDYLSWYQQKPGKSPKLVIYAATRLADGVPSRFSGSGSGTDYTLTISSLQPEDFATYYCLQSSSTPWTFGGGTKVEIK
hVEGF165 IC50 (nM), HMVEC-d proliferation [3]: 0.222 nM

B11: CL-28815-IgG (EI version of parent mAb) (antibody, V domains shown)
VH: EVQLVQSGSELKKPGASVKVSCKASGYTFTNYGMYWVRQAPGQGLEWMGWINTETGKPTYADDFKGRFVFSLDTSVSTAYLQISSLKAEDTAVYYCARTNYYYRSYIFYFDYWGQGTMVTVSS
VL: EIVLTQSPATLSLSPGERATLSCRASESVSTHMHWYQQKPGQAPRLLIYGASNLESGVPARFSGSGSGTDFTLTISSLEPEDFAVYFCQQSWNDPFTFGQGTKLEIK
notes: IgG format
Kd [4]: 12 pM | kon [4]: 9.2e+06 M⁻¹ s⁻¹
